Assay results published in FireProtDB (doi:10.1093/protein/7.6.777).

B1: Subtilisin-chymotrypsin inhibitor-2A, P01053 (parent)
chain: MSSVEKKPEGVNTGAGDRHNLKTEWPELVGKSVEEAKKVILQDKPEAQIIVLPVGTIVTMEYRIDRVRLFVDKLDNIAQVPRVG

Variants of: B1
Details: Hordeum vulgare, structure 2CI2, whole UniProt chain shown; for Tm / unfolding enthalpy (calorimetric): Thermal, DSC; for denaturant m value / denaturant midpoint (higher = more stable) / unfolding free energy: pH 6.25, 25 °C, GdnHCl, Fluorescence, MES 50 mM

Row | Variant | Tm (pH 3, glycine-HCl 10 mM) | unfolding enthalpy (calorimetric) (pH 3, glycine-HCl 10 mM) | denaturant m value | denaturant midpoint (higher = more stable) | unfolding free energy | Tm (pH 3.5, formate 10 mM) | unfolding enthalpy (calorimetric) (pH 3.5, formate 10 mM)
1 | S32A | 58 °C | 53 kcal/mol | 1.86 kcal/mol/M | 3.54 M | 6.58 kcal/mol |  | 
2 | S32A E34A E35A | 56.2 °C | 54 kcal/mol | 2.18 kcal/mol/M | 3.14 M | 6.86 kcal/mol |  | 
3 | S32G E34A E35A | 56.5 °C | 55 kcal/mol | 2.15 kcal/mol/M | 3.16 M | 6.79 kcal/mol |  | 
4 | E34A E35A | 60.1 °C | 58 kcal/mol | 2.11 kcal/mol/M | 3.61 M | 7.61 kcal/mol |  | 
5 | S32G |  |  | 2.1 kcal/mol/M | 3.59 M | 7.52 kcal/mol | 69 °C | 64 kcal/mol
6 | E34D |  |  | 1.83 kcal/mol/M | 3.73 M | 6.84 kcal/mol |  | 
7 | E34N |  |  | 2.01 kcal/mol/M | 3.64 M | 7.29 kcal/mol |  | 
8 | E34Q |  |  | 1.87 kcal/mol/M | 3.85 M | 7.03 kcal/mol |  | 
9 | E35D |  |  | 2.2 kcal/mol/M | 3.62 M | 7.98 kcal/mol |  | 
10 | E35N |  |  | 2.18 kcal/mol/M | 3.45 M | 7.53 kcal/mol |  | 
11 | E35Q |  |  | 1.84 kcal/mol/M | 3.76 M | 6.92 kcal/mol |  | 
